The values that follow come from patent US20240350646A1, “METHODS AND COMPOSITIONS FOR DELIVERY TO AND ACROSS THE BLOOD BRAIN BARRIER” (NUtech Ventures, priority 2021, published 2024).

The target of one assay is T1, mouse claudin-1 (Mus musculus, UniProt O88551).
T1 construct: These cells were subjected to ethanol (50 mM) treatment to induce claudin-1 expression; endogenous in cells; host or cells: bEnd.3 mouse brain microvascular endothelial cells
T1 sequence (O88551 1-211): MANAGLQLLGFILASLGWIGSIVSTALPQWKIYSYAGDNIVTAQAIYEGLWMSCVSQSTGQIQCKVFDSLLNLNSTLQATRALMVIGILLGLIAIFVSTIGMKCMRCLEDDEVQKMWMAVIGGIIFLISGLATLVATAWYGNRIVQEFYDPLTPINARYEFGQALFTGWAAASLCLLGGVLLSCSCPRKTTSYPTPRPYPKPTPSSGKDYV
The experiment in a line: In vitro immunofluorescence of NP binding in bEnd.3 cells (control and ethanol induced). It is filed as cell-based. The conditions noted are these: 4 hrs. The protocol: bEnd.3 cells were cultured according to the ATCC culture conditions in DMEM. These cells were subjected to ethanol (50 mM) treatment to induce claudin-1 expression and incubated with C1C2-NP for 4 hrs. For determining attachment of the C1C2-NP to human claudin-1, human claudin-1 encoded PCMV script plasmid was overexpressed in bEnd.3 cells and then incubated with C1C2-NP for 4 hrs.

Another assay concerns the target T2, claudin-1 (Mus musculus, UniProt O88551).
T2 sequence (O88551 1-211): T1 sequence (O88551 1-211)
The following applies: corpus callosum and hippocampus, in vivo.

Assay [1] has as its target T3, human claudin-4 (human, UniProt O14493 1-209, limits assumed).
T3 sequence (looked up): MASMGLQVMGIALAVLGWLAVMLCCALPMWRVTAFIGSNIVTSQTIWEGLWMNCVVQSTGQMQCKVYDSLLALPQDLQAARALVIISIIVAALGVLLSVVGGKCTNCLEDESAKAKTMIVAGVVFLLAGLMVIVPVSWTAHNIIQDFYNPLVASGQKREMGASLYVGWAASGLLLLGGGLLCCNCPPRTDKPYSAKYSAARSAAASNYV
Briefly: MST, sigmoidal dose-response fit (GraphPad Prism) of the FIG. 10A data; confidence interval undefined [panel B]. The protocol:
(§1) FIG. 10A is a graph showing binding of human claudins 3, 4 and 9 to C1C2-NPs using microscale thermophoresis. […] FIG. 10C is a graph showing the binding of human claudins 4 and 9 to control NPs monitored using microscale thermophoresis. […] Data fitting for human claudins 3, 4 and 9 were performed using Graph Pad Prism.
(§2) Human claudin-1 was expressed and purified as reported previously (Vecchio & Stroud, 2019, PNAS USA, 116:17817-24). MST measurements were performed using a Monolith instrument (NanoTemper Technologies). For experiments with human claudin-1, the assay buffer contained 10 mM Tris HCl, pH 8.0, 100 mM NaCl, 4% glycerol, and 0.04% n-Dodecyl-β-D-Maltopyranoside (β-DDM). NPs and peptides were labeled with AF647 prior to MST analysis as described above. For the binding experiments, the concentration of human claudin-1 was varied from 2.2-73,500 nM and the AF647-labeled C1C2-NP was fixed at 70 nM, while the AF647 labeled NPs and AF647 labeled C1C2 peptide were fixed at 1 and 0.3 μM, respectively. Binding of the AF647 labeled C1C2-NP to human claudin-3, -4, and -9 were tested using 0.4-14000 nM, 0.8-28000 nM, and 0.6-20000 nM, respectively; with the AF647 labeled C1C2-NP fixed at 70 nM. This assay buffer was similar, except β-DDM was replaced with 0.1% n-Undecyl-β-D-Maltopyranoside (beta-UDM).

The target of assay [2] is T4, human claudin-3 (human, UniProt O15551 1-220, limits assumed).
T4 sequence (looked up): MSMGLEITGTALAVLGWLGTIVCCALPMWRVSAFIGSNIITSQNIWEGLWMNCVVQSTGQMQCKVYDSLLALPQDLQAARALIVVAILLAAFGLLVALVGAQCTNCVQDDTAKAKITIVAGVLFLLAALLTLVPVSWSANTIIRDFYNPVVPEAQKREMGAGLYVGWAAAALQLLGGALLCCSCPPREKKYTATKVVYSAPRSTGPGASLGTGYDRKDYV
The experiment in a line: MST, sigmoidal dose-response fit (GraphPad Prism) of the FIG. 10A data; fit without amplitude, confidence interval undefined [panel B]. As to the method: as §1, §2

Another assay addresses T5, human claudin-9 (human, UniProt O95484 1-217, limits assumed).
T5 sequence (looked up): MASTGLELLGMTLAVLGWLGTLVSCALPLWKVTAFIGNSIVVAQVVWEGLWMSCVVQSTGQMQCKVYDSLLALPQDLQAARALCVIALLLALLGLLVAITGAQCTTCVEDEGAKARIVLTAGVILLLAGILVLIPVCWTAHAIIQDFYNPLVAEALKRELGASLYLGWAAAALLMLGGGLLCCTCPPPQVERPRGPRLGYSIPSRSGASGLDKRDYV
Briefly: MST, sigmoidal dose-response fit (GraphPad Prism) of the FIG. 10A data, M is the unit of the concentration axis of panel A; fit did not converge [panel B]. The protocol:
as §1, §2

Assay [3] has as its target T3, human claudin-4. Briefly: MST, sigmoidal dose-response fit (GraphPad Prism) of the FIG. 10A data, M is the unit of the concentration axis of panel A; confidence interval undefined [panel B]. The protocol: as §1, §2
The target of assay [4] is T4, human claudin-3. The experiment in a line: MST, sigmoidal dose-response fit (GraphPad Prism) of the FIG. 10A data, M is the unit of the concentration axis of panel A; fit without amplitude, confidence interval undefined [panel B]. The protocol: as §1, §2

Consider “C1C2-NP: PEG diacid coated ultrasmall Gd NP conjugated with C1C2 peptide SSVSQSTGQIQSKVDSLLNLNSTQATR (SEQ ID NO: 6); claudin-1 targeted (Ac-SSVSQSTGQIQSKVDSLLNLNSTQATR-NH2; also: conjugated to PEG diacid coated ultrasmall Gd nanoparticle)”, for which the “Binding to bEnd.3 cells” value with mouse claudin-1 (claudin-1 induced by ethanol (50 mM)) was “much higher binding”; with mouse claudin-1 (control cells, low claudin-1 expression), “no binding”. Further, the “Localization relative to claudin-1 immunofluorescence staining” value with claudin-1 is reported as “co-localize”.

B1: C1C2-NP (C1C2 peptide conjugated to PEG diacid coated ultrasmall Gd nanoparticles) (peptide)
peptide: Ac-SSVSQSTGQIQSKVDSLLNLNSTQATR-NH2
modifications: not fully specified; also: conjugated by EDC-NHS chemistry to PEG diacid on Gd oxide nanoparticle surface (19 peptides per 3.5 nm particle)
notes: The protein part is the C1C2 peptide; the core is not a protein; also called C1C2-NPs; C1C2 NPs
As for B1, the LogEC50 with human claudin-4 [1] was -4.7; with human claudin-3 [2] it was -7.05. Besides, the EC50 is 218000 µM in the assay with human claudin-9, 20.1 µM with human claudin-4 [3] and 0.0881 µM with human claudin-3 [4].

One may read the EC50 as the concentration at which the effect is half-maximal. Low readings indicate greater potency, high ones weaker potency.
